Experiment [1] concerns the target human CLDN3 I39A mutant on RKO KO cells (human) (UniProt O15551). In words: flow cytometry, 906-mAb-PE on RKO KO cells expressing the mutant. On the technique in general: In flow cytometry, cells or beads pass a laser one at a time.
The target of experiment [2] is human CLDN3 P149A mutant on RKO KO cells (human) (UniProt O15551). Described as above.
For experiment [3], the target named is human CLDN3 I45A mutant on RKO KO cells (human) (UniProt O15551). The description is as above.
Experiment [4] deals with human CLDN3 S42A mutant on RKO KO cells (human) (UniProt O15551). The experiment is described as above.
Experiment [5] deals with human CLDN3 P152A mutant on RKO KO cells (human) (UniProt O15551). Described as above.
In experiment [6] the target is human CLDN3 N148A mutant on RKO KO cells (human) (UniProt O15551). Described as above.
In experiment [7] the target is human CLDN3 Q43A mutant on RKO KO cells (human) (UniProt O15551). The description is as above.
In experiment [8] the target is human CLDN3 V150A mutant on RKO KO cells (human) (UniProt O15551). The experiment is described as above.
The target in experiment [9] is human CLDN3 Q155A mutant on RKO KO cells (human) (UniProt O15551). The description is as above.
In experiment [10] the target is human CLDN3 R157A mutant on RKO KO cells (human) (UniProt O15551). The experiment is described as above.
Experiment [11] concerns the target human CLDN3 F34A mutant on RKO KO cells (human) (UniProt O15551). Described as above.
Experiment [12] addresses human CLDN3 K156A mutant on RKO KO cells (human) (UniProt O15551). The description is as above.
The target in experiment [13] is T1, human CLDN3 E153A mutant on RKO KO cells (human, UniProt O15551 1-220).
T1 construct: Single-point alanine mutant, monoclonal RKO KO line with GFP
T1 chain: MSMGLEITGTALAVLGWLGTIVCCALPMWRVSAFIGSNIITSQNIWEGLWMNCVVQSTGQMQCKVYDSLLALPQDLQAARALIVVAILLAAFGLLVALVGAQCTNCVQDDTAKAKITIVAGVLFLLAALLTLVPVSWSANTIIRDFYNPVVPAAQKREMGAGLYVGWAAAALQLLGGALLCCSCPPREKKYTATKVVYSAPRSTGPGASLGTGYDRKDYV
The description is as above. As to the method: (§1) Flow cytometry. RKO KO target cells were seeded for flow cytometry as described in previous sections. Wells were topped up with flow buffer (PBS+2% FBS+2 mM EDTA+0.05% sodium azide) and plates were centrifuged at 300×g for 5 minutes. Supernatant was flicked off, cells were resuspended in 150 uL flow buffer. Plate was centrifuged at 300×g for 5 minutes. Supernatant was flicked off and cells were resuspended in 50 uL IgG block at 1:100 for 10 minutes at RT. Following incubation, plate was washed twice as above. Cells were resuspended in 50 uL of diluted antibodies (all a 1 in 300 dilution) in flow buffer, or flow buffer alone (unstained control). Cells were incubated for 30 minutes at RT. After incubation, plates were washed twice with 150 uL flow buffer. Cells were then resuspended in 100 uL flow buffer containing DAPI at a 1:200 concentration as a live/dead stain. Cells were run immediately on the CYTOFLEXS. Cells were acquired on fast flow rate, with a stopping condition of 10,000 live cells (based on Total>Singlets>Live).
(§2) Cell lines for analysis included RKO KO, a CLDN3 knockout (included as a negative control), RKO KO CLDN3 mutant cells (with various single-amino acid CLDN3 mutations) and RKO KO CLDN3 WT cells (positive control). RKO KO CLDN3 mutant cell lines were selected and generated as outlined in previous sections.

In experiment [14] the target is T2, human CLDN3 N38A mutant on RKO KO cells (human, UniProt O15551 1-220).
T2 construct: Single-point alanine mutant, monoclonal RKO KO line with GFP
T2 chain: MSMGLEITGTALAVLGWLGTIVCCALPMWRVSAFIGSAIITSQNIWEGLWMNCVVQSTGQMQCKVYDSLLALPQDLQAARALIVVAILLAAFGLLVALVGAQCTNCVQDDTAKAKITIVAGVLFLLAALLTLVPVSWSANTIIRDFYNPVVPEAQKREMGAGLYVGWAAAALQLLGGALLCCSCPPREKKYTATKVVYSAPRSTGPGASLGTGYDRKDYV
The experiment is described as above. As to the method:
as §1, §2

Experiment [15] deals with T1, human CLDN3 E153A mutant on RKO KO cells. The description is as above. As to the method: as §1, with “Cells were then resuspended in 100 uL flow buffer containing DAPI at a 1:200 concentration as a live/dead stain. Cells were run immediately on the CYTOFLEXS. Cells were acquired on fast flow rate, with a stopping condition of 10,000 live cells (based on Total>Singlets>Live).” left out
(§3) Data Analysis: Flow Cytometry. Flow cytometry data was analysed using FLOWJO and further analysed in Microsoft excel and RStudio. […] Statistics for % PE-positive cells (as % of live cells) and Median Fluorescence Intensity (MFI) were calculated in FLOWJO and exported to Microsoft Excel for further analysis. […] Briefly, MFI was log 10 transformed and a mixed model was used with a fixed effect for cell line and a random effect for Plate, whilst % Parent was analysed on a linear scale in a mixed model with a fixed effect for cell line and a random effect for plate.

Experiment [16] deals with T2, human CLDN3 N38A mutant on RKO KO cells. Described as above. As to the method:
as §1, with “Cells were then resuspended in 100 uL flow buffer containing DAPI at a 1:200 concentration as a live/dead stain. Cells were run immediately on the CYTOFLEXS. Cells were acquired on fast flow rate, with a stopping condition of 10,000 live cells (based on Total>Singlets>Live).” left out
as §3

The target of experiment [17] is human CLDN3 V150A mutant on RKO KO cells (human) (UniProt O15551). In words: flow cytometry, % 906-mAb-PE positive of live cells.
In experiment [18] the target is T1, human CLDN3 E153A mutant on RKO KO cells. The description is as above. The procedure:
as §1, with “Cells were then resuspended in 100 uL flow buffer containing DAPI at a 1:200 concentration as a live/dead stain. Cells were run immediately on the CYTOFLEXS. Cells were acquired on fast flow rate, with a stopping condition of 10,000 live cells (based on Total>Singlets>Live).” left out
as §3

The target in experiment [19] is T2, human CLDN3 N38A mutant on RKO KO cells. The description is as above. As to the method: as §1, with “Cells were then resuspended in 100 uL flow buffer containing DAPI at a 1:200 concentration as a live/dead stain. Cells were run immediately on the CYTOFLEXS. Cells were acquired on fast flow rate, with a stopping condition of 10,000 live cells (based on Total>Singlets>Live).” left out
as §3

human CLDN3 V150A mutant on RKO KO cells (human), sequence (O15551 whole entry V150A): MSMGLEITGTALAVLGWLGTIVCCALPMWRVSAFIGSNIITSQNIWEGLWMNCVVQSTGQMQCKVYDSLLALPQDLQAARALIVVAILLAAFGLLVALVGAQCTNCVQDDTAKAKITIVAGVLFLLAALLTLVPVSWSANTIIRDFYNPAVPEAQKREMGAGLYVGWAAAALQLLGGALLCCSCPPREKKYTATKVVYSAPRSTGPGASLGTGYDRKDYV
human CLDN3 Q155A mutant on RKO KO cells (human), sequence (O15551 whole entry Q155A): as the sequence (O15551 whole entry V150A) above, with A150V, Q155A counted along it
human CLDN3 I39A mutant on RKO KO cells (human), sequence (O15551 whole entry I39A): as the sequence (O15551 whole entry V150A) above, with I39A, A150V counted along it
human CLDN3 F34A mutant on RKO KO cells (human), sequence (O15551 whole entry F34A): as the sequence (O15551 whole entry V150A) above, with F34A, A150V counted along it
human CLDN3 P152A mutant on RKO KO cells (human), sequence (O15551 whole entry P152A): as the sequence (O15551 whole entry V150A) above, with A150V, P152A counted along it
human CLDN3 N148A mutant on RKO KO cells (human), sequence (O15551 whole entry N148A): as the sequence (O15551 whole entry V150A) above, with N148A, A150V counted along it
human CLDN3 P149A mutant on RKO KO cells (human), sequence (O15551 whole entry P149A): as the sequence (O15551 whole entry V150A) above, with P149A, A150V counted along it
human CLDN3 Q43A mutant on RKO KO cells (human), sequence (O15551 whole entry Q43A): as the sequence (O15551 whole entry V150A) above, with Q43A, A150V counted along it
human CLDN3 K156A mutant on RKO KO cells (human), sequence (O15551 whole entry K156A): as the sequence (O15551 whole entry V150A) above, with A150V, K156A counted along it
human CLDN3 I45A mutant on RKO KO cells (human), sequence (O15551 whole entry I45A): as the sequence (O15551 whole entry V150A) above, with I45A, A150V counted along it
human CLDN3 S42A mutant on RKO KO cells (human), sequence (O15551 whole entry S42A): as the sequence (O15551 whole entry V150A) above, with S42A, A150V counted along it
human CLDN3 R157A mutant on RKO KO cells (human), sequence (O15551 whole entry R157A): as the sequence (O15551 whole entry V150A) above, with A150V, R157A counted along it

B1: 906-mAb (anti-CLDN3 906-mAb, monoclonal antibody version of the scFv of 906-009_LNGFR) (antibody, V domains shown)
VH: QVQLVQSGAEVKKPGSSVKVSCKASGYTFTNYWVHWVRQAPGQGLEWMGRIEPNSSGSQYNEKFKNRVTITADKSTSTAYMELSSLRSEDTAVYYCARGVMVPLDYWGQGTLVTVSS
VL: DIQMTQSPSSLSASVGDRVTITCKASQDINRYIAWYQQKPGKAPKLLIHYTSTLQPGVPSRFSGSGSGTDFTLTISSLQPEDFATYYCLQYETLYSFGQGTKLEIK
Turning to B1, the fold change MFI vs CLDN3 WT (fold vs CLDN3 WT) was 0.95 in experiment [1]; 2.03 in experiment [2]; 3.17 in experiment [3]; 3.91 in experiment [4]; 5.07 in experiment [5]; 2.75 in [6]. The fold change MFI vs CLDN3 WT (fold vs CLDN3 WT) in experiment [7] was 2.68; in [8], 2.98; in experiment [9], 3.4; in experiment [10], 1.31; in [11], 0.4; in [12], 0.73. In addition, the binding result in experiment [13] and in [14] was “no binding” throughout. Moreover, the “fold change MFI vs CLDN3 WT” value in experiment [15] and in [16] was 0.01 fold vs CLDN3 WT in each case. The Change in % Parent (906-mAb-PE positive cells) vs CLDN3 WT is 0% in [17], -94.5% in experiment [18] and -99.2% in experiment [19].

(Values after US20230192842A1 (published 2023).)
